From patent publication EP4628507A1 (Jiangsu Hengrui Pharmaceuticals Co., Ltd., dated 2025)
Read-outs that look alike come from different tables or passages of the source.

Assays:
[1] = molecular target: T1, human 4-1BB on the surface of HEK293-Hu4-1BB cells (human, UniProt Q07011 24-255); assay: cell-based or functional assay
[2] = molecular target: T1, human 4-1BB on the surface of …; assay: flow cytometry on HEK293-Hu4-1BB cells
[3] = molecular target: T1, human 4-1BB on the surface of …; assay: flow cytometry on HEK293-Hu4-1BB cells; remark: listed apart in the source
[4] = molecular target: T1, human 4-1BB on the surface of …; assay: cell-based or functional assay; remark: listed apart in the source

T1 sequence (Q07011 24-255): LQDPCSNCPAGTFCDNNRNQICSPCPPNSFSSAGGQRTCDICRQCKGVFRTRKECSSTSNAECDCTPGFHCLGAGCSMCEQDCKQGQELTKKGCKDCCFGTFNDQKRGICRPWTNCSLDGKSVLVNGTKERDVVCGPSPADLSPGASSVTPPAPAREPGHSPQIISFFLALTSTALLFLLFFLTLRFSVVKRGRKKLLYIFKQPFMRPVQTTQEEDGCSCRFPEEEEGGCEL

B1: Urelumab (antibody, V domains shown)
VH: QVQLQQWGAGLLKPSETLSLTCAVYGGSFSGYYWSWIRQSPEKGLEWIGEINHGGYVTYNPSLESRVTISVDTSKNQFSLKLSSVTAADTAVYYCARDYGPGNYDWYFDLWGRGTLVTVSS
VL: EIVLTQSPATLSLSPGERATLSCRASQSVSSYLAWYQQKPGQAPRLLIYDASNRATGIPARFSGSGSGTDFTLTISSLEPEDFAVYYCQQRSNWPPALTFGGGTKVEIK
- Fold change in Emax, FcγRIIb-mediated activation of HEK293-4-1BB cells [1]: 2.61 fold
- Fold change in Emax, activation of HEK293-4-1BB cells (no FcγRIIb) [1]: 1.7 fold
- EC50 [2]: 1.64 nM
- EC50 [3]: 1.18 nM
- EC50, 4-1BB/NF-κB luciferase reporter, FcγRIIb cross-linking [4]: 0.027 nM
- EC50, 4-1BB/NF-κB luciferase reporter, no FcγRIIb cross-linking [4]: 2.19 nM
- Emax, 4-1BB/NF-κB luciferase reporter, FcγRIIb cross-linking [4]: 9.39 relative to the antibody-free group
- Emax, 4-1BB/NF-κB luciferase reporter, no FcγRIIb cross-linking [4]: 4.3 relative to the antibody-free group
